Reference: article doi:10.1101/2025.11.17.688911

Legend:
[1] = biological target: surface-immobilized biotinylated microtubules, Q2XVP4;Q767L7; assay: fluorescence intensity of GFP-tagged MAP9 on MTs (fluorescence microscopy); details: 100 mM salt (stated for panel d); parent: est. 2.8; read off a plot
[2] = biological target: surface-immobilized biotinylated microtubules, Q2XVP4;Q767L7; assay: fluorescence intensity of GFP-tagged MAP9-MTBD on surface-immobilized MTs (fluorescence microscopy); details: 100 nM MAP9 construct (stated for panel h and Extended Data Fig. 6b); parent: est. 0.72; read off a plot

Substance | response [1] [a.u.] | response [2] [a.u.]
MAP9-MTBD (Human MAP9 (302–647)::GFP::strepII) (from UniProt Q49MG5) LHEMHRIK>LAEMHAIK; …>…; LKEKNRK>LAEKNAK; FKQKEKEK>FAQKEAEK; ERIERKQ>EAIERAQ | 2.8 | –
MAP9-MTBD (Human MAP9 (302–647)::GFP::strepII) (from UniProt Q49MG5) Y429A; W432A; K436A; F473A; W476A; K480A | – | 0.05
